Laboratory results from patent US9012407B2, “Therapies which act on neuropeptide S receptors” (The Regents of the University of California, priority 2004, dated 2015).
Residue numbers refer to the chain shown, from its start. One block for each molecule: values may come before it. Where no end group is shown, it is not given here. The star is where a group is joined. 125I = radioactive iodine-125 label on the tyrosine, [125I]*

Experiments:
human NPSR = biological target: T1, human NPSR (Homo sapiens, UniProt Q6W5P4); assay: Mobilization of intracellular Ca2+ (FLIPR) in HEK 293T cells stably expressing human NPSR; assay type: cell-based; settings: for EC50: HEK 293T cells stably expressing human NPSR, read-out: EC50 for mobilization of [Ca2+]i
T1 construct: This receptor protein is identical to the NPSR that we have studied extensively for its pharmacology; expressed in transfected cells
T1 sequence (Q6W5P4 1-371): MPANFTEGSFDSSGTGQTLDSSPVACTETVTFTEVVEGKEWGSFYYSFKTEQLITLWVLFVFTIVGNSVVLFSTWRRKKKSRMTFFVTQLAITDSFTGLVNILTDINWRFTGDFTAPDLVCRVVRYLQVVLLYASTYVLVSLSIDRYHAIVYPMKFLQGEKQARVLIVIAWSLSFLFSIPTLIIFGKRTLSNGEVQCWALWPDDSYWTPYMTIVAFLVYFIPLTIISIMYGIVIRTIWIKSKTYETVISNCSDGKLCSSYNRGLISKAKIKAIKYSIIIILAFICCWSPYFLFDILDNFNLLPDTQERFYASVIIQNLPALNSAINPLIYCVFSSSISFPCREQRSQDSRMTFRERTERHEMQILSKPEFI
Protocol: Cell lines stably expressing human NPSR in both Chinese hamster ovary (CHO) cells and human embryonic kidney 293 T cells (HEK 293T) were used to define the pharmacological characteristics of NPS. […] HEK 293T cells and CHO dhfr(−) cells were transfected with the human NPSR cDNA cloned into pcDNA 3.1(+) using LipofectAmine. Stable clones were selected with 800 mg/l G418 and tested for mobilization of intracellular Ca^2+ with 100 nM NPS (generous gift of Phoenix Pharmaceuticals, Belmont, Calif.). Changes in intracellular Ca^2+ were measured in a fluorometric imaging plate reader system (FLIPR, Molecular Devices) as described before(Saito et al., 1999). Dose response curves for agonist activation were calculated from peak fluorescence values of triplicate incubations and EC50 values were calculated with Prism software (GraphPad, San Diego, Calif.).

rodents = settings: cited from earlier work
[1] = single i.c.v. injection; cited from earlier work
NPSR Ile^107 = biological target: T2, NPSR Ile^107 (Homo sapiens, UniProt Q6W5P4, N107I); assay: Intracellular Ca2+ mobilization (FLIPR) in HEK 293 cells stably expressing NPSR Ile107; assay type: cell-based; settings: for agonist activity, Ca2+ mobilization: individual HEK 293 clone; for agonist potency compared to the human peptide: Ca2+ mobilization
T2 construct: The Ile^107 isoform of NPSR was generated by PCR using synthetic oligonucleotides and the Quik Change Site-Directed Mutagenesis kit from Stratagene; expressed in transfected cells
T2 sequence (Q6W5P4 1-371 N107I): T1 sequence (Q6W5P4 1-371) with N107I
Protocol: (§1) Changes of agonist-induced intracellular Ca^2+ were measured using the FLIPR technology as described before (5, 6). NPS and truncated NPS peptides were a gift from Phoenix Pharmaceuticals (Belmont, Calif.). Dose-response curves were calculated using GraphPad Prism (Graph Pad, San Diego). Mean EC50 values of populations of stable clones expressing either wildtype or mutant NPSR were compared using unpaired t-test and p<0.05 was considered significant.
(§2) Two cells lines expressing similar levels (measured by radioligand binding; see below) of either NPSR WT or NPSR Ile were chosen for detailed analyses of pharmacological parameters. […] In order to investigate whether this tenfold increase in agonist potency at NPSR lie was a general property of the receptor protein we compared a large number of stable clones expressing either NPSR WT or NPSR Ile^107 by establishing dose-response curves for each construct and calculating mean EC50 values for the populations.

NPSR WT = biological target: T3, NPSR WT (Homo sapiens, UniProt Q6W5P4); assay: Intracellular Ca2+ mobilization (FLIPR) in HEK 293 cells stably expressing NPSR WT; assay type: cell-based; settings: for agonist activity, Ca2+ mobilization: individual HEK 293 clone; for agonist potency compared to the human peptide: Ca2+ mobilization
T3 construct: The primary structure of the wildtype NPSR (NPSR WT) is identical to isoform A of GPRA; expressed in transfected cells
T3 sequence (Q6W5P4 1-371): T1 sequence (Q6W5P4 1-371)
Protocol: as §1, §2

[2] = biological target: human Neuropeptide S receptor, wildtype (NPSR WT) (human) (UniProt Q6W5P4); assay: cell-based or functional assay
[3] = biological target: T4, human Neuropeptide S receptor Ile107 isoform (NPSR Ile107) (human, UniProt Q6W5P4 1-371); assay: saturation binding of [125I] Y10-NPS to stable clones, intact cells, average of n=4 clones
T4 construct: also called NPSR lie; Asn107Ile variant
T4 sequence: T1 sequence (Q6W5P4 1-371) with N107I

[4] = biological target: T5, human Neuropeptide S receptor, wildtype (NPSR WT) (human, UniProt Q6W5P4 1-371); assay: as above
T5 construct: Stably expressed in CHO dhfr(-), HEK 293T or HEK 293 cells; also called hNPSR; human NPSR
T5 sequence: T1 sequence (Q6W5P4 1-371)

[5] = biological target: T5, human Neuropeptide S receptor, wildtype …; assay: saturation radioligand binding to intact CHO cells stably expressing hNPSR
Protocol: (§3) The monoiodinated form of Y^10-NPS was used as a radioligand in receptor binding experiments. […] No specific binding was detected in mock-transfected CHO cells.
(§4) CHO cells stably expressing human NPSR were seeded into 24-well plates and cultured for 48 hours. […] Nonspecific binding was determined in the presence of 1 µM unlabeled human NPS. The binding assay was carried out as described (Sakurai et al., 1998). In brief, cells were washed with PBS first and then incubated with radioligand with or without unlabeled NPS peptide in DMEM medium containing 0.1% bovine serum albumin at 20° C. for 1.5 h. Cells were washed 5 times with cold PBS and lysed with 1 N NaOH. Bound radioactivity was counted in a MicroBeta liquid scintillation counter (EG&G Wallac, Gaithersburg, Md.) and corrected for counting efficiency. Data from triplicate incubations were analyzed using PRISM.

[6] = biological target: T4, human Neuropeptide S receptor Ile107 …; assay: saturation binding of [125I] Y10-NPS to stable clones, intact cells
[7] = biological target: T5, human Neuropeptide S receptor, wildtype …; assay: as above
[8] = biological target: human Neuropeptide S receptor C-terminal splice variant (NPSR C-alt) (human), Q6W5P4; assay: cell-based or functional assay
[9] = biological target: T4, human Neuropeptide S receptor Ile107 …; assay: cell-based or functional assay
[10] = biological target: T5, human Neuropeptide S receptor, wildtype …; assay: cell-based or functional assay
[11] = biological target: T5, human Neuropeptide S receptor, wildtype …; assay: displacement of 0.15 nM [125I] Y10-NPS from CHO cells stably expressing hNPSR by unlabeled human NPS
Protocol: as §3, §4

agonist activity, Ca2+ mobilization (NPSR Ile^107): full agonist activity
agonist activity, Ca2+ mobilization (NPSR WT): full agonist activity
Molecule: NPS 1-10: human NPS fragment, residues 1-10, after deletion of the two lysines at positions 11 and 12 (SFRNGVGTGM)

agonist activity, Ca2+ mobilization (NPSR Ile^107): completely abolished agonist activity
agonist activity, Ca2+ mobilization (NPSR WT): completely abolished agonist activity
Molecule: NPS 4-20: human NPS fragment with the three amino-terminal amino acids deleted (NGVGTGMKKTSFQRAKS)

agonist potency compared to the human peptide (NPSR Ile^107): slightly more potent
agonist potency compared to the human peptide (NPSR WT): slightly more potent
EC50 (human NPSR): 3.2 ± 1.1 nM
Molecule: SFRNGVGSGVKKTSFRRAKQ [rat NPS]

EC50 for mobilization of [Ca2+]i, HEK 293T cells stably expressing human NPSR [2]: 3 nM
Molecule: mouse Neuropeptide S (from UniProt P0C0P8 70-89)

EC50, CRE-luciferase reporter, transiently transfected HEK 293 cells [9]: 17.3 nM
EC50, MAPK phosphorylation, stable HEK cells [9]: 0.32 nM
EC50, cAMP formation, stable HEK clone [9]: 3.45 nM
EC50, intracellular free Ca2+, single stable HEK 293 clone [9]: 1.4 nM
mean EC50, NPS-induced CRE-luciferase reporter gene expression, n=21 stable HEK clones [9]: 0.63 nM
mean EC50, NPS-induced mobilization of intracellular Ca2+, n=21 stable clones [9]: 1.01 nM
EC50, CRE-luciferase reporter, transiently transfected HEK 293 cells [10]: 76.6 nM
EC50, MAPK phosphorylation, stable HEK cells [10]: 1.23 nM
EC50, cAMP accumulation, stable HEK clone [10]: 31.9 nM
EC50, increase in intracellular Ca2+ in cells stably expressing NPSR WT [10]: 5 to 10 nM
EC50, intracellular free Ca2+, single stable HEK 293 clone [10]: 12.4 nM
EC50 for mobilization of [Ca2+]i, HEK 293T cells stably expressing human NPSR [10]: 9.4 nM
mean EC50, NPS-induced CRE-luciferase reporter gene expression, n=7 stable HEK clones [10]: 45.1 nM
mean EC50, NPS-induced mobilization of intracellular Ca2+, n=16 stable clones [10]: 13 nM
IC50 [11]: 0.42 nM
B2: human Neuropeptide S (hNPS) (peptide)
peptide: SFRNGVGTGMKKTSFQRAKS-OH
notes: 20-residue mature peptide with free C-terminus (-OH); also called human NPS; NPS 1-20
EC50, CRE-luciferase reporter, transiently transfected HEK 293 cells [8]: 146 nM

EC50, agonist activity (Ca2+ mobilization, data not shown) [10]: 6.7 nM
Molecule: SFRNGVGTGYKKTSFQRAKS [Human Y10-NPS (unlabeled)]

The next lines start with the molecule.

Molecule: H-SFRNGVGTGYKKTSFQRAKS-OH [Human Y^10-NPS]
agonist activity (human NPSR; human NPSR, Ca2+ mobilization): full agonist activity

Molecule: Hcrt/Ox: neuropeptide hypocretin 1/orexin A, literature comparison (QPLPDCCRQKTCSCRLYELLHGAGNHAAGILTL; ends and bridges not checked; cysteine pairing not given here; UniProt O43612 34-66, looked up)
effect on anxiety-like behavior (rodents): no effect
duration of arousal [1]: 2 to 3 h

Molecule: NPS 1-12: carboxy-terminally truncated fragment of human NPS, residues 1-12 (SFRNGVGTGMKK)
antagonist activity against activation by NPS 1-20 (NPSR Ile^107): failed to block activation
agonist activity, Ca2+ mobilization (NPSR Ile^107): full, but weakly potent, agonist
antagonist activity against activation by NPS 1-20 (NPSR WT): failed to block activation
agonist activity, Ca2+ mobilization (NPSR WT): almost completely lost agonist activity

Molecule: SFRNGVGSGAKKTSFRRAKQ [mouse NPS]
agonist potency compared to the human peptide (NPSR Ile^107): slightly more potent
agonist potency compared to the human peptide (NPSR WT): slightly more potent
EC50 (human NPSR): 3 ± 1.3 nM

Molecule: rat Neuropeptide S (from UniProt P0C0P7 70-89)
EC50 for mobilization of [Ca2+]i, HEK 293T cells stably expressing human NPSR [2]: 3.2 nM

B1: [125I] Y10-hNPS (monoiodinated human Y10-NPS radioligand) (peptide)
peptide: SFRNGVGTGY(125I)KKTSFQRAKS
modifications: also: monoiodinated with 125I (chloramine T)
notes: Human NPS in which the residue at position 10 is replaced by tyrosine, then radioiodinated; also called Y10-NPS; the radioligand
Kd [3]: 0.403 nM
Kd [4]: 0.347 nM
Kd [5]: 0.33 nM
Kd [6]: 0.17 to 0.4 nM
Kd [7]: 0.2 to 0.45 nM
